In doi:10.1101/2022.02.28.481274 (bioRxiv, 2022):

T1: NocΔCTD-His6 (Bacillus subtilis, UniProt P37524 1-242)
T1 sequence: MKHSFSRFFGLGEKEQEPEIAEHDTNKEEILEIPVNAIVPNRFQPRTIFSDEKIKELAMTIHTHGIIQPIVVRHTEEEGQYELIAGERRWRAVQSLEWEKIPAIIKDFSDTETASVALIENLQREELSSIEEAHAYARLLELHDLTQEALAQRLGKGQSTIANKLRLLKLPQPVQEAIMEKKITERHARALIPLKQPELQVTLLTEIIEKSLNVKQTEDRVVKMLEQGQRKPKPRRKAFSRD

B1: 16-bp NBS (dsDNA)
DNA 1: TATTTCCCGGGAAATA
DNA 2: TATTTCCCGGGAAATA
B2: Bacillus subtilis NocΔCTD-His6 (domain or fragment, UniProt P37524 1-242, looked up)
chain: T1 sequence

Tests used:
NocΔCTD-His6 = biological target: T1, NocΔCTD-His6; test: X-ray crystallography
crystal structure = biological target: the molecule itself; test: crystal structure

Binder | binding result (NocΔCTD-His6) | stoichiometry N (crystal structure)
B1 | binds | –
B2 | – | 2
